Data on three molecules can be found in patent publication EP1473042A1 (City of Hope, dated 2004).

B2: human RXRα (9-cis retinoic acid receptor), full-length, wild type (receptor, UniProt P19793 1-462, looked up)
chain: MDTKHFLPLDFSTQVNSSLTSPTGRGSMAAPSLHPSLGPGIGSPGQLHSPISTLSSPINGMGPPFSVISSPMGPHSMSVPTTPTLGFSTGSPQLSSPMNPVSSSEDIKPPLGLNGVLKVPAHPSGNMASFTKHICAICGDRSSGKHYGVYSCEGCKGFFKRTVRKDLTYTCRDNKDCLIDKRQRNRCQYCRYQKCLAMGMKREAVQEERQRGKDRNENEVESTSSANEDMPVERILEAELAVEPKTETYVEANMGLNPSSPNDPVTNICQAADKQLFTLVEWAKRIPHFSELPLDDQVILLRAGWNELLIASFSHRSIAVKDGILLATGLHVHRNSAHSAGVGAIFDRVLTELVSKMRDMQMDKTELGCLRAIVLFNPDSKGLSNPAEVEALREKVYASLEAYCKHKYPEQPGRFAKLLLRLPALRSIGLKCLEHLFFFKLIGDTPIDTFLMEMLEAPHQMT
notes: mature; also called wild-type RXR

In assay [1] the target is T1, rat FXR (farnesoid X-activated receptor), full-length (rat, UniProt Q62735 1-469).
T1 construct: mature; in vitro translated for the mobility shift assays; also called bile acid nuclear receptor; BAR
T1 sequence (looked up): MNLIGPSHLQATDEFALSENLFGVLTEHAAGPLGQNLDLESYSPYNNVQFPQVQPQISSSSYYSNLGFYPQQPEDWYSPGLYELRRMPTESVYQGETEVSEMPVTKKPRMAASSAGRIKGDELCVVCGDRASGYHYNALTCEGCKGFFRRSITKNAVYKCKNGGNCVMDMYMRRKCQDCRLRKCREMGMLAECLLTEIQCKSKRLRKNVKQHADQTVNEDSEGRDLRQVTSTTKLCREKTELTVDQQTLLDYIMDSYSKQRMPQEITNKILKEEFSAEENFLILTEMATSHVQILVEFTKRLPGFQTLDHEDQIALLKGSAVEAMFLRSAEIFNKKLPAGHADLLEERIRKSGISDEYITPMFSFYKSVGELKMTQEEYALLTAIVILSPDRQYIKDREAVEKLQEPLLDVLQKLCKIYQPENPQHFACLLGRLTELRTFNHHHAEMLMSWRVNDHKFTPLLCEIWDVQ
Kind of assay: DNA binding as heterodimer (Figure 5 and data not shown).

In assay [2] the target is GST-GRIP1 (glutathione-S-transferase fused to the three receptor interaction domains of mouse GRIP1, Arg 625 - Lys 765) (mouse) (UniProt Q61026). Kind of assay: electrophoretic mobility shift, DR1 probe, 5 µg GST-GRIP1, LG268 0-1000 nM. In general terms: In EMSA bound probe runs differently from free probe, usually more slowly.
For assay [3] the target is unchanged. Kind of assay: phosphorimager quantitation of the mobility shift autoradiogram (Figure 4).
Assay [4] deals with T1, rat FXR (farnesoid X-activated …). Kind of assay: electrophoretic mobility shift, hsp27 EcRE probe, in vitro translated FXR + RXR.
Assay [5] concerns the target B2. Description: electrophoretic mobility shift, DR1 probe, increasing LG268.

B1: RXRm, human RXRα with the single point mutation Asp 322→Pro in the ligand binding domain (receptor, UniProt P19793 1-462, looked up)
chain: MDTKHFLPLDFSTQVNSSLTSPTGRGSMAAPSLHPSLGPGIGSPGQLHSPISTLSSPINGMGPPFSVISSPMGPHSMSVPTTPTLGFSTGSPQLSSPMNPVSSSEDIKPPLGLNGVLKVPAHPSGNMASFTKHICAICGDRSSGKHYGVYSCEGCKGFFKRTVRKDLTYTCRDNKDCLIDKRQRNRCQYCRYQKCLAMGMKREAVQEERQRGKDRNENEVESTSSANEDMPVERILEAELAVEPKTETYVEANMGLNPSSPNDPVTNICQAADKQLFTLVEWAKRIPHFSELPLDDQVILLRAGWNELLIASFSHRSIAVKPGILLATGLHVHRNSAHSAGVGAIFDRVLTELVSKMRDMQMDKTELGCLRAIVLFNPDSKGLSNPAEVEALREKVYASLEAYCKHKYPEQPGRFAKLLLRLPALRSIGLKCLEHLFFFKLIGDTPIDTFLMEMLEAPHQMT
notes: mature; also called mutant RXR; RXR mutant
On to B1, for which, in assay [1], the binding result was “binds”. Further, in assay [2], the fold decrease in potency of coactivator recruitment compared to wild type RXR is 100 fold. Also, the fold higher concentration of ligand (LG268) required for recruitment of coactivator, against wild-type RXR in assay [3] came out at 100 fold.
In the case of B2, the binding result in assay [4] is given as “binds”.

B3: GST-GRIP1 (glutathione-S-transferase fused to the three receptor interaction domains of mouse GRIP1, Arg 625 - Lys 765) (other, UniProt Q61026 625-765, looked up)
chain: RAEGHSRLHDSKGQTKLLQLLTTKSDQMEPSPLPSSLSDTNKDSTGSLPGPGSTHGTSLKEKHKILHRLLQDSSSPVDLAKLTAEATGKELSQESSSTAPGSEVTVKQEPASPKKKENALLRYLLDKDDTKDIGLPEITPK
notes: range 625-765; Expressed in E. coli, purified on glutathione-sepharose; also called CoA; not shown: glutathione-S-transferase (GST)
B3: the binding result in assay [5] is listed as “binds”.
